In paper doi:10.1101/2024.11.13.623448:

How the values were obtained:
[1] = target: nucleosome core particle: Cse4, H2A, H2B, H4 histone octamer wrapped with Widom 601 DNA (S. cerevisiae | K. lactis) (UniProt P36012); experiment: optical trap bead-microtubule binding assay; His6-NCPs (40 nM) held on polystyrene beads by anti-His6 antibody; 10 nM OA or 20 nM Mif2, 10 nM 2D-MIND, 10 nM Ndc80c, 5 nM Dam1c free in solution; bead brought to the dynamic plus end of a surface-anchored microtubule and released from the trap; 1x BRB80, 1 mM GTP, 16 uM tubulin, room temperature
[2] = target: nucleosome core particle: Cse4, H2A, H2B, H4 histone octamer wrapped with chimeric centromeric DNA (CCEN) (S. cerevisiae | K. lactis) (UniProt P36012); experiment: as above

- percent of beads that bound microtubules [1]: > 78%
- percent of beads that bound microtubules [2]: > 78%
Substance: Mif2-linker-(27-392)MBP (from UniProt P35201 1-549) (natural protein)
